This passage reports binding result, EC50 and signal-to-background ratio results from patent US20230381350A1 (PRECIRIX N V, published 2023).

For assay [1], the target named is T1, human FAP expressed on cells (human, UniProt Q12884 1-760).
T1 construct: also called human FAP cell surface protein; human FAP receptor
T1 sequence: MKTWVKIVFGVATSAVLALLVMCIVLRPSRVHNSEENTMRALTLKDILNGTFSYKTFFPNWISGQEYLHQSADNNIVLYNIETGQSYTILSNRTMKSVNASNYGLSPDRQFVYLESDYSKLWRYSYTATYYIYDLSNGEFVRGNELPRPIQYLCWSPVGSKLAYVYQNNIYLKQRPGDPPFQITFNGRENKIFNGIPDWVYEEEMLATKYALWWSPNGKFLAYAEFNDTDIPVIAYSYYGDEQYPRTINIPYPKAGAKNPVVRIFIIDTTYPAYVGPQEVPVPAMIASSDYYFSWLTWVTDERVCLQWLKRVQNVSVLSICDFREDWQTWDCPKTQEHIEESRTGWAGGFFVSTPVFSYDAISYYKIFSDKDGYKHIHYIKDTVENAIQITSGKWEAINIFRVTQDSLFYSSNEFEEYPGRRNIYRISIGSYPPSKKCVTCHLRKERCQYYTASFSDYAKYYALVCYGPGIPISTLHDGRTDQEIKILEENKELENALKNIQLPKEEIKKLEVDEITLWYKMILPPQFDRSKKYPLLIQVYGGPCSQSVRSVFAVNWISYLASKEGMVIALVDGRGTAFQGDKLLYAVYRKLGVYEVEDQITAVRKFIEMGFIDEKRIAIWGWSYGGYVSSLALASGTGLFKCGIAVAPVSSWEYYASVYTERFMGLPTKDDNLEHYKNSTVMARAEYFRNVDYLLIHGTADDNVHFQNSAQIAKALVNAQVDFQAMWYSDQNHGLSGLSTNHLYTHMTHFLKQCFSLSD
Kind of assay: saturation binding of 99mTc-labelled VHH on human FAP-expressing GM05389 cells. On the procedure: (§1) Next, the different cell lines were incubated with serial dilutions with concentrations ranging from 0 to 300 nM of the different ^99mTc-labelled His₆-tagged VHHs. A 100-fold excess of the corresponding unlabeled VHH was added in parallel to saturate the human or murine FAP proteins on the cancer cell surface, to assess non-specific binding. The resulting EC50 values for each of the VHHs are depicted in Table 8. […] We confirmed that ^99mTc-labeled VHH B4 only binds murine FAP cell surface protein, while VHH B3 only binds human FAP cell surface molecules in vitro.

The target of assay [2] is T2, murine FAP expressed on cells (murine, UniProt P97321 1-761).
T2 construct: also called murine FAP cell surface protein
T2 sequence: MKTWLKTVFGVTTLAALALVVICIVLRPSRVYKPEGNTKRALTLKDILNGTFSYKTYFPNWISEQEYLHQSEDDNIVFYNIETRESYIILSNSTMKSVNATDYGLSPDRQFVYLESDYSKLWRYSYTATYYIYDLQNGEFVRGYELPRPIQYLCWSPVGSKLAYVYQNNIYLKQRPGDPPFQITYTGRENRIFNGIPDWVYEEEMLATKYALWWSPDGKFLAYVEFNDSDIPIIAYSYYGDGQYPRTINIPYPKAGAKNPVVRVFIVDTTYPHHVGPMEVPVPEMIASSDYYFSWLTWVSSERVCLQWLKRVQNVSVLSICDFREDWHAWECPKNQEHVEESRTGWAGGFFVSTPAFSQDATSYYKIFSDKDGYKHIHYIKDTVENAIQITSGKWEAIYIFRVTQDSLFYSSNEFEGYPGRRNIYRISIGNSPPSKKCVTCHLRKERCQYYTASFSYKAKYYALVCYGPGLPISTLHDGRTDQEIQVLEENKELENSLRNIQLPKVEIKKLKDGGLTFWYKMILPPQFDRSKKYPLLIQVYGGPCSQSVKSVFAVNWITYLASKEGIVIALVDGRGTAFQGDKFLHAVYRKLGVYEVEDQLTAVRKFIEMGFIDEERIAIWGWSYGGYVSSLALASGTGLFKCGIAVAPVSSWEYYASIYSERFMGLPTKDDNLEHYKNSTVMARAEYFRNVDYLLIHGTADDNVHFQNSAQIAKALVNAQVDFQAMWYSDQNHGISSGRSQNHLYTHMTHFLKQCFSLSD
Kind of assay: saturation binding of 99mTc-labelled VHH on murine FAP-expressing HEK-293 cells. On the procedure: as §1

In assay [3] the target is T1, human FAP expressed on cells. Kind of assay: saturation binding of 99mTc-labelled VHH on human FAP-expressing GM05389 cells (mean ± SD, n = 3). On the procedure:
(§2) Next, we describe the in vitro and in vivo human and murine FAP binding potential of different VHHs after radiolabelling with the diagnostic radioisotope ^99mTc. […] His₆-tagged human/murine FAP-targeting VHHs were radiolabelled with the diagnostic radioisotope ^99mTc, according to the radiochemical procedure described in Example 3.
as §1

The target is the same in assay [4]. Kind of assay: saturation binding of 99mTc-labelled VHH on human FAP-expressing HEK-293 cells (mean ± SD, n = 3). On the procedure:
as §2, §1

Assay [5] addresses T2, murine FAP expressed on cells. Kind of assay: saturation binding of 99mTc-labelled VHH on murine FAP-expressing HEK-293 cells (mean ± SD, n = 3). On the procedure: as §2, §1
For assay [6], the target named is T3, human DPP IV recombinant protein (human, UniProt P27487 29-766).
T3 construct: extracellular domain; Bought protein; also called Dipeptidyl amino-peptidase IV
T3 sequence (P27487 29-766): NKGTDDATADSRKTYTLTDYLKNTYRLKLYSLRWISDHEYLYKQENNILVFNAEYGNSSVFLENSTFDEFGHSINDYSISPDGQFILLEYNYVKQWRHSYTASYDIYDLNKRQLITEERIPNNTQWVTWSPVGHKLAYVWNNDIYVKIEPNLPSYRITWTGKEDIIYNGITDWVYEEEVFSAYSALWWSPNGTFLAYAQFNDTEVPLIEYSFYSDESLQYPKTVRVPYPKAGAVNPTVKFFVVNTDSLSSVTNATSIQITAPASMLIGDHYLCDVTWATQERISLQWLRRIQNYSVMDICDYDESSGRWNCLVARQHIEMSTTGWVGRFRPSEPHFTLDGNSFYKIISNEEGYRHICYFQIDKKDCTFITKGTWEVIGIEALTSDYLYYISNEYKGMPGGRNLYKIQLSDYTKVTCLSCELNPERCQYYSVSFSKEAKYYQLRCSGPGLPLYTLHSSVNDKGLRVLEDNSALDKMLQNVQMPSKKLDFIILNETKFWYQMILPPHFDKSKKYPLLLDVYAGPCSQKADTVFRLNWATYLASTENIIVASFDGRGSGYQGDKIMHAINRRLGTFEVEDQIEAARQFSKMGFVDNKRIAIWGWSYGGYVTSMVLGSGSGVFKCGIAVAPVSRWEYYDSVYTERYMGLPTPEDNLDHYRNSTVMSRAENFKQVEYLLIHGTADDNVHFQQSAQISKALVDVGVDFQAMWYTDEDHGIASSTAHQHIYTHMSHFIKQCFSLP
Kind of assay: ELISA, coated human DPP IV, HA-His6-tagged VHH extract, anti-HA detection. On the procedure:
(§3) The day before measurement, 0.1 μg recombinant protein at a concentration of 1 μg/mL in 100 mM NaHCO₃, pH 8.2 was coated in a 96-well ELISA plate (Nunc MaxiSorp). Per VHH clone also a blank coated well was foreseen (only buffer). The wells were overcoated with protein-free T20 (PBS) blocking buffer (Pierce). After washing with PBS, pH7.4, 0.05% Tween, VHH-containing bacterial freeze-thaw extract was added to every well. Binding of HA-His₆-tagged VHHs was detected by using mouse anti-HA.11 epitope tag (clone 16B12, Biolegend) as the primary Ab and goat anti-mouse IgG (whole molecule) alkaline phosphatase conjugate (Sigma-Aldrich) as the secondary Ab, with thorough washing with PBS, pH 7.4, 0.05% Tween in between. Signals were developed using phosphatase substrate (Sigma-Aldrich) in AP blot buffer (100 mM NaCl, 50 mM MgCl₂, 100 mM Tris, pH 9.5). The absorbance was determined at 405 nm using an absorbance microplate reader (Molecular Devices). Per clone the ratio was determined between the absorbance in the antigen-coated well versus the well without antigen.
A general note: An ELISA detects its analyte on a solid surface through an enzyme-linked reagent.

Assay [7] has as its target T4, human FAP recombinant protein (human, UniProt Q12884 26-760).
T4 construct: The protein was biotinylated with sulfo-NHS-SS-biotin for bio-layer interferometry; also called extracellular domain of human FAP with N-terminal His6-tag
T4 sequence: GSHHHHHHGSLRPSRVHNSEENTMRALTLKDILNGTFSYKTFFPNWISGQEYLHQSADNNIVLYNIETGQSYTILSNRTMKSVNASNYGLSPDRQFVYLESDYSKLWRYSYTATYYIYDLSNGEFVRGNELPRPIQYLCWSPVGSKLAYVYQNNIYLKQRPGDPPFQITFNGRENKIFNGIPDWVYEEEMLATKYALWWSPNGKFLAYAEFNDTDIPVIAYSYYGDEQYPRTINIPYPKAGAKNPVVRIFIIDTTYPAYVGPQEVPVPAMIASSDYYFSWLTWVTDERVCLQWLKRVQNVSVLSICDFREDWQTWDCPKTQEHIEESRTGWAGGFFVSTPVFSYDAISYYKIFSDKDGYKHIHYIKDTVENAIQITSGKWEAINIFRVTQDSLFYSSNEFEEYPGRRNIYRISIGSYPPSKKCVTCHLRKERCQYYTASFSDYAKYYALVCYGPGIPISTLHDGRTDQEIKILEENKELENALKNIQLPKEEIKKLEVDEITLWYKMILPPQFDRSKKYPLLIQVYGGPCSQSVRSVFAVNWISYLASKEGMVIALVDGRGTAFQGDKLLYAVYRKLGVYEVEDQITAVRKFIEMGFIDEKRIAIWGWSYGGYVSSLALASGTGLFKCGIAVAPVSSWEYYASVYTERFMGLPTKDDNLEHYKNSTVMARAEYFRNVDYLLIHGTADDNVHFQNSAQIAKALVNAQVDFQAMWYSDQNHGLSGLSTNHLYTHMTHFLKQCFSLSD
Kind of assay: ELISA, coated human FAP recombinant protein, HA-His6-tagged VHH extract, anti-HA detection. On the procedure:
as §3

Assay [8] concerns the target T3, human DPP IV recombinant protein. Kind of assay: ELISA on coated recombinant protein, VHH-containing bacterial extract, anti-HA detection, signal-to-background ratio. On the procedure:
as §3

Assay [9] concerns the target T1, human FAP expressed on cells. Kind of assay: saturation binding of 131I-SGMIB-labelled VHH on human FAP-expressing GM05389 cells; GM05389 cells. On the procedure: (§4) In a first part, the in vitro behaviour was assessed by means of investigating their cellular binding and retention overtime. The binding potential of the resulting radioconjugates was assessed to confirm that this was not affected by the introduction of ¹³¹I-SGMIB into the amino acid sequence of the VHH. To this, human FAP-expressing GM05389 (His₆-tagged and untagged VHH B1) and human FAP-transfected HEK-293 cells (His₆-tagged and untagged VHH B1; His₆-tagged VHH B2) were incubated with serial dilutions with concentrations ranging from 0 to 33 nM of the different ¹³¹I-labelled VHHs. A 100-fold excess of the corresponding unlabeled VHH was added in parallel to saturate the human FAP receptors expressed on cancer cells, to assess non-specific binding.

Assay [10] shares this target. Kind of assay: saturation binding of 131I-SGMIB-labelled VHH on human FAP-transfected HEK-293 cells; HEK-293 cells. On the procedure:
as §4

B1: 99mTc-labeled non-targeting control VHH R3B23 (VHH)
VHH: QVQLQESGGGSVQAGGSLRLSCAASGDTGYMGWFRQAPGKEREGVAVINSDSGVGSTYYADSVKGRFTISRDNAKNTVYLQMNSLKPEDTAIYYCAAGHFSDYVSPWTWREIYRYNVWGQGTQVTVSS
modifications: 99mTc label (labelling is described at the His6-tag)
notes: also called 99mTc-R3B23
Turning to B1, the binding result in [1] and in assay [2] was “no binding (tested: 0 to 300 nM)” in each case.

B2: 99mTc-labeled His6-tagged VHH B3 (VHH)
VHH: DVQLVESGGGLVQAGGSLRLSCAVSGRLFSTNAMGWYRQAPGKQRELVAGITGGDRSNYADSVKGRFTISRDNGKNTLYLQMNSLKPEDTAVYYCNFYPPIVGDYWGQGTQVTVSS
modifications: [99mTc(H2O)3(CO)3] complexed at the His6-tag
notes: also called 99mTc-B3
On to B2, for which the binding result in assay [2] is recorded as “no binding (tested: 0 to 300 nM)”. The EC50 stood at 2.7 nM in [3] and 2.4 nM in assay [4].

B3: 99mTc-labeled His6-tagged VHH B4 (VHH)
VHH: DVQLVESGGGLVQVGGSLRLSCVASGFTFSSYYMSWVRQAPGKGLEWVASIYADGDMTYYADSVRGRFTISRDNAKNTLYLQMNSLKSEDTAVYYCAKDPLPPYHVNQGTQVTVSS
modifications: [99mTc(H2O)3(CO)3] complexed at the His6-tag
notes: also called 99mTc-B4
As for B3, in assay [1], the binding result is reported as “no binding (tested: 0 to 300 nM)”. The molecule also yielded a 50% effective concentration (EC50) in [5] of 7.6 nM.

B4: HA-His6-tagged VHH B1 (VHH)
VHH: QVQLQESGGGLVQPGGSLRLSCVASGRLSSSNSMAWYRQVPGKRRELVAGITGGGETNYADFVGGRFTISRDNAKNGLYLQLNGLKPEDTAAYYCNFWPPLINYWGQGTQVTVSS
notes: Used as bacterial freeze-thaw extract in ELISA and flow cytometry, and at 1 µM in the enzyme assay; also called B1 with HA-His6-tag
As for B4, the signal-to-background ratio in assay [6] is roughly 1; in assay [7], greater than 25. In [8], the binding result is “no binding”.

B5: 131I-labeled His6-tagged VHH B1 (VHH)
VHH: DVQLVESGGGLVQPGGSLRLSCVASGRLSSSNSMAWYRQVPGKRRELVAGITGGGETNYADFVGGRFTISRDNAKNGLYLQLNGLKPEDTAAYYCNFWPPLINYWGQGTQVTVSS
modifications: [131I]SGMIB conjugated to lysine side-chain amines
notes: also called 131I-B1; His6-tagged B1
As to B5, the concentration giving a half-maximal response (EC50) came out at 0.6 nM in [9] and 1.4 nM in [10].

B6: 131I-labeled untagged VHH B1 (VHH)
VHH: DVQLVESGGGLVQPGGSLRLSCVASGRLSSSNSMAWYRQVPGKRRELVAGITGGGETNYADFVGGRFTISRDNAKNGLYLQLNGLKPEDTAAYYCNFWPPLINYWGQGTQVTVSS
modifications: [131I]SGMIB conjugated to lysine side-chain amines
notes: also called untagged B1; [131I]SGMIB-VHH
For the molecule B6, the figures for the concentration for a half-maximal effect (EC50) in assay [9] and in assay [10] were 2.7 nM and 2.8 nM, respectively.

B7: HA-His6-tagged VHH B2 (VHH)
VHH: QVQLQESGGGLVQAGGSLRLSCAVSGSISSANSMGWYRQAPGKQRDVVAGLTTGGRSHYADSVKGRFTISRDNAKNTVYLQMNSLKAEDTAVYYCNLWPPVQGYWGQGTQVTVSS
notes: also called B2 with HA-His6-tag
Turning to B7, the values for the signal-to-background ratio in [6] and in [7] were roughly 1 and greater than 25, respectively. In addition, the binding result in assay [8] is listed as “no binding”.

B8: 131I-labeled His6-tagged VHH B2 (VHH)
VHH: DVQLVESGGGLVQAGGSLRLSCAVSGSISSANSMGWYRQAPGKQRDVVAGLTTGGRSHYADSVKGRFTISRDNAKNTVYLQMNSLKAEDTAVYYCNLWPPVQGYWGQGTQVTVSS
modifications: [131I]SGMIB conjugated to lysine side-chain amines
notes: also called 131I-B2; His6-tagged B2
In turn, B8 came in with a half-maximal effective concentration (EC50) in assay [10] of 3.8 nM.

Usually EC50 stands for the concentration that produces a half-maximal response. Lower therefore signals greater potency.
